Data taken from paper PMC3988998, “Molecular Mechanism of Antibody-Mediated Activation of β-galactosidase” (Structure(London, England:1993), 2014).

Target: T1, Escherichia coli β-galactosidase (E. coli, UniProt P00722 = β-galactosidase)
T1 construct: β-galactosidase of E. coli, encoded by lacZ; Wild-type commercial enzyme; source: bought: Sigma catalog no; G3153
Assay: cryo-EM structure; β-gal mixed with scFv13R4 in a 1:10 stoichiometric ratio (2.5-fold excess), 1 hr on ice; single-particle cryo-EM, map at ~13 Å; rigid-body docking of β-gal (1F4A) and of the HyHEL-10 Fv (3A6B)
Settings: both partners purified

T1 sequence (P00722 whole entry): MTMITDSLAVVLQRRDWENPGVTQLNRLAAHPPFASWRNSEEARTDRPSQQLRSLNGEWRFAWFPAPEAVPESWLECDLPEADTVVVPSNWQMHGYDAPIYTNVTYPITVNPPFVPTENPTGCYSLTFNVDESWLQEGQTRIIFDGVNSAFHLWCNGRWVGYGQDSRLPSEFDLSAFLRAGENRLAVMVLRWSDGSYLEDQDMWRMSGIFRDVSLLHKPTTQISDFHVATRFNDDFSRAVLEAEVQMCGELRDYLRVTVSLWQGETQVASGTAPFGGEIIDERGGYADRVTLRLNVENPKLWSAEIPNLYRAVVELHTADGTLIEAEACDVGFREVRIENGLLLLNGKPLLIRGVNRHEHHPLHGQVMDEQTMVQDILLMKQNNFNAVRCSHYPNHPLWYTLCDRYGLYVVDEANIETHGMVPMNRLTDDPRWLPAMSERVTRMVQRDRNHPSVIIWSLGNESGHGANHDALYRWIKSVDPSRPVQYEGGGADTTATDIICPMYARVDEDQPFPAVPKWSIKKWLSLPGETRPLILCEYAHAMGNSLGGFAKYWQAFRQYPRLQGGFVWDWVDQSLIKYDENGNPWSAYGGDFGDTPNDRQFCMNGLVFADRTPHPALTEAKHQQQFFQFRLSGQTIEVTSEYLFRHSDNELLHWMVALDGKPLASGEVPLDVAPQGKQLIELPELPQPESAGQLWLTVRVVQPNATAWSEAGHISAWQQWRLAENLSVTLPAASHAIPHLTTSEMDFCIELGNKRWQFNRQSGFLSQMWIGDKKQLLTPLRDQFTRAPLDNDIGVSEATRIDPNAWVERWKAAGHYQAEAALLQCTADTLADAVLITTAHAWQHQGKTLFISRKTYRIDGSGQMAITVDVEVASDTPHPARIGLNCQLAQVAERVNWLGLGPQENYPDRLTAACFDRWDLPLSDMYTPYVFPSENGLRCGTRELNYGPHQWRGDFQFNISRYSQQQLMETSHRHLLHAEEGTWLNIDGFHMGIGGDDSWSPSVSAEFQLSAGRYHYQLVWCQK

B1: scFv13R4 (scFv, V domains shown)
VH: EVQLVESGGSLVKPGGSLRLSCAASGFTFSNYSMNWVRQAPGKGLEWISSISGSSRYIYYADFVKGRFTISRDNATNSLYLQMNSLRAEDTAVYYCVRSSITIFGGGMDVWGRGTLVTVSS
VL: QSVLTQPASVSGSPGQSITISCAGTSSDVGGYNYVSWYQQHPGKAPKLMIYEDSKRPSGVSNRFSGSKSGNTASLTISGLQAEDEADYYCSSYTTRSTRVFGGGTKLAVL
notes: model of the complex deposited as PDB 4CKD, built by docking the HyHEL-10 Fv of PDB 3A6B; 28 kDa single-chain Fv selected for cytoplasmic expression (Martineau et al., 1998); The preparation held GroEL as an impurity; also called Fv antibody; source: E. coli strain PM12 (BL21 (DE3) pLysS with a lacZ:Tn5 mutation), pET 16b, purified (nickel-nitrilotriacetic acid column)
  stoichiometry N: 1 Fv per β-gal subunit
